# Measurements taken from US20180009871A1 (INTARCIA THERAPEUTICS, published 2018).
# Where no end group is shown, it is not given here. [ ]: non-standard residue; d: D form. Aib = CC(C)(N)C(=O)O
# B1: Compound A59 (peptide)
# peptide: YSHGTFTSDYSKYLD[Aib]KRAQEFV[Aib]WLEDEPSSKQPPPS-OH
# modifications: N-terminus assumed
# SMILES: CC(C)C[C@H](NC(=O)[C@H](Cc1ccc(O)cc1)NC(=O)[C@H](CCCCN)NC(=O)[C@H](CO)NC(=O)[C@H](Cc1ccc(O)cc1)NC(=O)[C@H](CC(=O)O)NC(=O)[C@H](CO)NC(=O)[C@@H](NC(=O)[C@H](Cc1ccccc1)NC(=O)[C@@H](NC(=O)CNC(=O)[C@H](Cc1c[nH]cn1)NC(=O)[C@H](CO)NC(=O)[C@@H](N)Cc1ccc(O)cc1)[C@@H](C)O)[C@@H](C)O)C(=O)N[C@@H](CC(=O)O)C(=O)NC(C)(C)C(=O)N[C@@H](CCCCN)C(=O)N[C@@H](CCCNC(=N)N)C(=O)N[C@@H](C)C(=O)N[C@@H](CCC(N)=O)C(=O)N[C@@H](CCC(=O)O)C(=O)N[C@@H](Cc1ccccc1)C(=O)N[C@H](C(=O)NC(C)(C)C(=O)N[C@@H](Cc1c[nH]c2ccccc12)C(=O)N[C@@H](CC(C)C)C(=O)N[C@@H](CCC(=O)O)C(=O)N[C@@H](CC(=O)O)C(=O)N[C@@H](CCC(=O)O)C(=O)N1CCC[C@H]1C(=O)N[C@@H](CO)C(=O)N[C@@H](CO)C(=O)N[C@@H](CCCCN)C(=O)N[C@@H](CCC(N)=O)C(=O)N1CCC[C@H]1C(=O)N1CCC[C@H]1C(=O)N1CCC[C@H]1C(=O)N[C@@H](CO)C(=O)O)C(C)C
# B2: Compound A63 (peptide)
# peptide: YTHGTFTSDYSKYLDSARAQEFVKWLEDEPSSGAPPPS-OH
# B3: Compound A60 (peptide)
# peptide: YTHGTFTSDYSKYLD[Aib]KRAQEFV[Aib]WLEDEPSSGKPPPS-OH
# modifications: N-terminus assumed
# SMILES: CC(C)C[C@H](NC(=O)[C@H](Cc1ccc(O)cc1)NC(=O)[C@H](CCCCN)NC(=O)[C@H](CO)NC(=O)[C@H](Cc1ccc(O)cc1)NC(=O)[C@H](CC(=O)O)NC(=O)[C@H](CO)NC(=O)[C@@H](NC(=O)[C@H](Cc1ccccc1)NC(=O)[C@@H](NC(=O)CNC(=O)[C@H](Cc1c[nH]cn1)NC(=O)[C@@H](NC(=O)[C@@H](N)Cc1ccc(O)cc1)[C@@H](C)O)[C@@H](C)O)[C@@H](C)O)C(=O)N[C@@H](CC(=O)O)C(=O)NC(C)(C)C(=O)N[C@@H](CCCCN)C(=O)N[C@@H](CCCNC(=N)N)C(=O)N[C@@H](C)C(=O)N[C@@H](CCC(N)=O)C(=O)N[C@@H](CCC(=O)O)C(=O)N[C@@H](Cc1ccccc1)C(=O)N[C@H](C(=O)NC(C)(C)C(=O)N[C@@H](Cc1c[nH]c2ccccc12)C(=O)N[C@@H](CC(C)C)C(=O)N[C@@H](CCC(=O)O)C(=O)N[C@@H](CC(=O)O)C(=O)N[C@@H](CCC(=O)O)C(=O)N1CCC[C@H]1C(=O)N[C@@H](CO)C(=O)N[C@@H](CO)C(=O)NCC(=O)N[C@@H](CCCCN)C(=O)N1CCC[C@H]1C(=O)N1CCC[C@H]1C(=O)N1CCC[C@H]1C(=O)N[C@@H](CO)C(=O)O)C(C)C
# B4: Compound A62 (peptide)
# peptide: YTHGTFTSDYSKYLD[Aib]KRAQEFV[Aib]WLEDEPSSGAPPPS-OH
# modifications: N-terminus assumed
# SMILES: CC(C)C[C@H](NC(=O)[C@H](Cc1ccc(O)cc1)NC(=O)[C@H](CCCCN)NC(=O)[C@H](CO)NC(=O)[C@H](Cc1ccc(O)cc1)NC(=O)[C@H](CC(=O)O)NC(=O)[C@H](CO)NC(=O)[C@@H](NC(=O)[C@H](Cc1ccccc1)NC(=O)[C@@H](NC(=O)CNC(=O)[C@H](Cc1c[nH]cn1)NC(=O)[C@@H](NC(=O)[C@@H](N)Cc1ccc(O)cc1)[C@@H](C)O)[C@@H](C)O)[C@@H](C)O)C(=O)N[C@@H](CC(=O)O)C(=O)NC(C)(C)C(=O)N[C@@H](CCCCN)C(=O)N[C@@H](CCCNC(=N)N)C(=O)N[C@@H](C)C(=O)N[C@@H](CCC(N)=O)C(=O)N[C@@H](CCC(=O)O)C(=O)N[C@@H](Cc1ccccc1)C(=O)N[C@H](C(=O)NC(C)(C)C(=O)N[C@@H](Cc1c[nH]c2ccccc12)C(=O)N[C@@H](CC(C)C)C(=O)N[C@@H](CCC(=O)O)C(=O)N[C@@H](CC(=O)O)C(=O)N[C@@H](CCC(=O)O)C(=O)N1CCC[C@H]1C(=O)N[C@@H](CO)C(=O)N[C@@H](CO)C(=O)NCC(=O)N[C@@H](C)C(=O)N1CCC[C@H]1C(=O)N1CCC[C@H]1C(=O)N1CCC[C@H]1C(=O)N[C@@H](CO)C(=O)O)C(C)C
# B5: Compound A67 (peptide)
# peptide: YSHGTFTSDYSKYLD[Aib]ARAQEFV[Aib]WLEDEPKSKSPPPS-NH2
# modifications: N-terminus assumed
# SMILES: CC(C)C[C@H](NC(=O)[C@H](Cc1ccc(O)cc1)NC(=O)[C@H](CCCCN)NC(=O)[C@H](CO)NC(=O)[C@H](Cc1ccc(O)cc1)NC(=O)[C@H](CC(=O)O)NC(=O)[C@H](CO)NC(=O)[C@@H](NC(=O)[C@H](Cc1ccccc1)NC(=O)[C@@H](NC(=O)CNC(=O)[C@H](Cc1c[nH]cn1)NC(=O)[C@H](CO)NC(=O)[C@@H](N)Cc1ccc(O)cc1)[C@@H](C)O)[C@@H](C)O)C(=O)N[C@@H](CC(=O)O)C(=O)NC(C)(C)C(=O)N[C@@H](C)C(=O)N[C@@H](CCCNC(=N)N)C(=O)N[C@@H](C)C(=O)N[C@@H](CCC(N)=O)C(=O)N[C@@H](CCC(=O)O)C(=O)N[C@@H](Cc1ccccc1)C(=O)N[C@H](C(=O)NC(C)(C)C(=O)N[C@@H](Cc1c[nH]c2ccccc12)C(=O)N[C@@H](CC(C)C)C(=O)N[C@@H](CCC(=O)O)C(=O)N[C@@H](CC(=O)O)C(=O)N[C@@H](CCC(=O)O)C(=O)N1CCC[C@H]1C(=O)N[C@@H](CCCCN)C(=O)N[C@@H](CO)C(=O)N[C@@H](CCCCN)C(=O)N[C@@H](CO)C(=O)N1CCC[C@H]1C(=O)N1CCC[C@H]1C(=O)N1CCC[C@H]1C(=O)N[C@@H](CO)C(N)=O)C(C)C
# B6: Compound A65 (peptide)
# peptide: YSHGTFTSDYSKYLD[Aib]KRAQEFV[Aib]WLEDEPKSKEPPPS-NH2
# modifications: N-terminus assumed
# SMILES: CC(C)C[C@H](NC(=O)[C@H](Cc1ccc(O)cc1)NC(=O)[C@H](CCCCN)NC(=O)[C@H](CO)NC(=O)[C@H](Cc1ccc(O)cc1)NC(=O)[C@H](CC(=O)O)NC(=O)[C@H](CO)NC(=O)[C@@H](NC(=O)[C@H](Cc1ccccc1)NC(=O)[C@@H](NC(=O)CNC(=O)[C@H](Cc1c[nH]cn1)NC(=O)[C@H](CO)NC(=O)[C@@H](N)Cc1ccc(O)cc1)[C@@H](C)O)[C@@H](C)O)C(=O)N[C@@H](CC(=O)O)C(=O)NC(C)(C)C(=O)N[C@@H](CCCCN)C(=O)N[C@@H](CCCNC(=N)N)C(=O)N[C@@H](C)C(=O)N[C@@H](CCC(N)=O)C(=O)N[C@@H](CCC(=O)O)C(=O)N[C@@H](Cc1ccccc1)C(=O)N[C@H](C(=O)NC(C)(C)C(=O)N[C@@H](Cc1c[nH]c2ccccc12)C(=O)N[C@@H](CC(C)C)C(=O)N[C@@H](CCC(=O)O)C(=O)N[C@@H](CC(=O)O)C(=O)N[C@@H](CCC(=O)O)C(=O)N1CCC[C@H]1C(=O)N[C@@H](CCCCN)C(=O)N[C@@H](CO)C(=O)N[C@@H](CCCCN)C(=O)N[C@@H](CCC(=O)O)C(=O)N1CCC[C@H]1C(=O)N1CCC[C@H]1C(=O)N1CCC[C@H]1C(=O)N[C@@H](CO)C(N)=O)C(C)C
# B7: Compound A64 (peptide)
# peptide: YTHGTFTSDYSKYLD[Aib]ARAQEFV[Aib]WLEDEPSSGAPPPS-OH
# modifications: N-terminus assumed
# SMILES: CC(C)C[C@H](NC(=O)[C@H](Cc1ccc(O)cc1)NC(=O)[C@H](CCCCN)NC(=O)[C@H](CO)NC(=O)[C@H](Cc1ccc(O)cc1)NC(=O)[C@H](CC(=O)O)NC(=O)[C@H](CO)NC(=O)[C@@H](NC(=O)[C@H](Cc1ccccc1)NC(=O)[C@@H](NC(=O)CNC(=O)[C@H](Cc1c[nH]cn1)NC(=O)[C@@H](NC(=O)[C@@H](N)Cc1ccc(O)cc1)[C@@H](C)O)[C@@H](C)O)[C@@H](C)O)C(=O)N[C@@H](CC(=O)O)C(=O)NC(C)(C)C(=O)N[C@@H](C)C(=O)N[C@@H](CCCNC(=N)N)C(=O)N[C@@H](C)C(=O)N[C@@H](CCC(N)=O)C(=O)N[C@@H](CCC(=O)O)C(=O)N[C@@H](Cc1ccccc1)C(=O)N[C@H](C(=O)NC(C)(C)C(=O)N[C@@H](Cc1c[nH]c2ccccc12)C(=O)N[C@@H](CC(C)C)C(=O)N[C@@H](CCC(=O)O)C(=O)N[C@@H](CC(=O)O)C(=O)N[C@@H](CCC(=O)O)C(=O)N1CCC[C@H]1C(=O)N[C@@H](CO)C(=O)N[C@@H](CO)C(=O)NCC(=O)N[C@@H](C)C(=O)N1CCC[C@H]1C(=O)N1CCC[C@H]1C(=O)N1CCC[C@H]1C(=O)N[C@@H](CO)C(=O)O)C(C)C
# B8: Compound A66 (peptide)
# peptide: YSHGTFTSDYSKYLD[Aib]KRAQEFV[Aib]WLEDEPKSKSPPPS-NH2
# modifications: N-terminus assumed
# SMILES: CC(C)C[C@H](NC(=O)[C@H](Cc1ccc(O)cc1)NC(=O)[C@H](CCCCN)NC(=O)[C@H](CO)NC(=O)[C@H](Cc1ccc(O)cc1)NC(=O)[C@H](CC(=O)O)NC(=O)[C@H](CO)NC(=O)[C@@H](NC(=O)[C@H](Cc1ccccc1)NC(=O)[C@@H](NC(=O)CNC(=O)[C@H](Cc1c[nH]cn1)NC(=O)[C@H](CO)NC(=O)[C@@H](N)Cc1ccc(O)cc1)[C@@H](C)O)[C@@H](C)O)C(=O)N[C@@H](CC(=O)O)C(=O)NC(C)(C)C(=O)N[C@@H](CCCCN)C(=O)N[C@@H](CCCNC(=N)N)C(=O)N[C@@H](C)C(=O)N[C@@H](CCC(N)=O)C(=O)N[C@@H](CCC(=O)O)C(=O)N[C@@H](Cc1ccccc1)C(=O)N[C@H](C(=O)NC(C)(C)C(=O)N[C@@H](Cc1c[nH]c2ccccc12)C(=O)N[C@@H](CC(C)C)C(=O)N[C@@H](CCC(=O)O)C(=O)N[C@@H](CC(=O)O)C(=O)N[C@@H](CCC(=O)O)C(=O)N1CCC[C@H]1C(=O)N[C@@H](CCCCN)C(=O)N[C@@H](CO)C(=O)N[C@@H](CCCCN)C(=O)N[C@@H](CO)C(=O)N1CCC[C@H]1C(=O)N1CCC[C@H]1C(=O)N1CCC[C@H]1C(=O)N[C@@H](CO)C(N)=O)C(C)C
# B9: Compound A61 (peptide)
# peptide: YSHGTFTSDYSKYLDSARAQEFVKWLEDEPSSGKPPPS-OH
# Biological target: human glucagon receptor (GCGR) (human, UniProt P47871 26-477)
# Assay: cell-based or functional assay
row,Binder,hGCGR pEC50 (cAMP)
1,B1,12.2 pEC50
2,B2,10.4 pEC50
3,B3,11.3 pEC50
4,B4,11.5 pEC50
5,B5,10.9 pEC50
6,B6,12.5 pEC50
7,B7,10.7 pEC50
8,B8,12.5 pEC50
9,B9,11.4 pEC50

# Biological target: human GLP-1 receptor (GLP-1R) (human, UniProt P43220 24-463)
# Sequence (P43220 24-463): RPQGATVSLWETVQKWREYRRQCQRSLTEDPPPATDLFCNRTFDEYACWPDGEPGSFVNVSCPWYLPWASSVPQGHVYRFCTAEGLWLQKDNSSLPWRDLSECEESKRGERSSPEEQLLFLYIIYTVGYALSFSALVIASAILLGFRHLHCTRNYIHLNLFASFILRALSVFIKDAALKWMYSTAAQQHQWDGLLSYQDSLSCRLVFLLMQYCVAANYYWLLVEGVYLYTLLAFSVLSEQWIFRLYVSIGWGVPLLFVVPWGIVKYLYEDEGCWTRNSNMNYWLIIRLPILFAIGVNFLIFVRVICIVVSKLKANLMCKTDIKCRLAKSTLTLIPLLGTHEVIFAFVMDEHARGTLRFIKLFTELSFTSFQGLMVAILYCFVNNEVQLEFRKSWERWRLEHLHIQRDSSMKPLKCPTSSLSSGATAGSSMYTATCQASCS
# Assay: cell-based or functional assay
row,Binder,hGLP1 pEC50 (cAMP)
1,B1,< 9 pEC50
2,B2,< 9 pEC50
3,B3,< 9 pEC50
4,B4,< 9 pEC50
5,B5,< 9 pEC50
6,B6,< 9 pEC50
7,B7,< 9 pEC50
8,B8,< 9 pEC50
9,B9,< 9 pEC50
